What was measured:
[1] = molecular target: T1, human IGFBP-1 (human) (UniProt P08833); assay: BIAcore
T1 sequence (looked up): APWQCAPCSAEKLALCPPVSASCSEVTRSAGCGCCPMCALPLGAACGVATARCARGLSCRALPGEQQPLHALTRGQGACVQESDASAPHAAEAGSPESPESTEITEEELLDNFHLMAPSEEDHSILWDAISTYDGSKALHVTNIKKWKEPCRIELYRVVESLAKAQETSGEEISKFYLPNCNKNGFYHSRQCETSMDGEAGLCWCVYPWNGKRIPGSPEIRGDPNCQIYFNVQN

[2] = molecular target: recombinant human IGFBP-3 (human) (UniProt P17936); assay: BIAcore
[3] = molecular target: Ala(1-3)-IGF-I, triple alanine mutant of the first three N-terminal amino acids, displayed on phage (human; bacteriophage M13); assay: competitive phage ELISA, soluble IGFBP-3 vs coated IGFBP-3
[4] = molecular target: IGF-I D20A (G1S-A70V background) displayed on phage (human; bacteriophage M13); assay: as above
[5] = molecular target: IGF-I F23A (G1S-A70V background) displayed on phage (human; bacteriophage M13); assay: as above
[6] = molecular target: IGF-I F25A (G1S-A70V background) displayed on phage (human; bacteriophage M13); assay: as above
[7] = molecular target: IGF-I G19A (G1S-A70V background) displayed on phage (human; bacteriophage M13); assay: as above
[8] = molecular target: IGF-I G22A (G1S-A70V background) displayed on phage (human; bacteriophage M13); assay: as above
[9] = molecular target: IGF-I G42A (G1S-A70V background) displayed on phage (human; bacteriophage M13); assay: as above
[10] = molecular target: IGF-I I43A (G1S-A70V background) displayed on phage (human; bacteriophage M13); assay: as above
[11] = molecular target: IGF-I N26A (G1S-A70V background) displayed on phage (human; bacteriophage M13); assay: as above
[12] = molecular target: IGF-I Q40A (G1S-A70V background) displayed on phage (human; bacteriophage M13); assay: as above
[13] = molecular target: IGF-I R21A (G1S-A70V background) displayed on phage (human; bacteriophage M13); assay: as above
[14] = molecular target: IGF-I R37A (G1S-A70V background) displayed on phage (human; bacteriophage M13); assay: as above
[15] = molecular target: IGF-I S34A (G1S-A70V background) displayed on phage (human; bacteriophage M13); assay: as above
[16] = molecular target: IGF-I S35A (G1S-A70V background) displayed on phage (human; bacteriophage M13); assay: as above
[17] = molecular target: IGF-I T41A (G1S-A70V background) displayed on phage (human; bacteriophage M13); assay: as above
[18] = molecular target: IGF-I V44A (G1S-A70V background) displayed on phage (human; bacteriophage M13); assay: as above
[19] = molecular target: IGF-I Y24A (G1S-A70V background) displayed on phage (human; bacteriophage M13); assay: as above
[20] = molecular target: T2, IGF-I F49A (G1S-A70V background) displayed on phage (human; bacteriophage M13); assay: competitive phage ELISA, soluble IGFBP-1 vs coated IGFBP-1; conditions: remark: other sources report otherwise
T2 chain: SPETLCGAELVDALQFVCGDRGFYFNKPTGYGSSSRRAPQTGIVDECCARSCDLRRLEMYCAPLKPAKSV

Chain of recombinant human IGFBP-3 (human) (P17936 28-291 limits assumed): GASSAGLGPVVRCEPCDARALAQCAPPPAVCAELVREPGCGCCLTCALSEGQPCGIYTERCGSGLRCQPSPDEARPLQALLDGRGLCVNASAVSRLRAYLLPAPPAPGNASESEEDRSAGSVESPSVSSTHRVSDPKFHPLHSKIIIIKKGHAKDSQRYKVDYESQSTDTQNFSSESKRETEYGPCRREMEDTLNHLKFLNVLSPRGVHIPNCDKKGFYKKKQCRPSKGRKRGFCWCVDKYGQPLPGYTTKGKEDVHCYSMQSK

Molecule “R36A IGF-I (soluble, purified) (from UniProt P05019 49-118) (ligand)” has a KD(mutant)/KD(IGF-I) [1] of 1.1 fold and a KD(mutant)/KD(IGF-I) [2] of 0.8 fold.

Work on “V11A IGF-I (soluble, purified) (from UniProt P05019 49-118) (ligand)” yielded a KD(mutant)/KD(IGF-I) [1] of 5.1 fold and a KD(mutant)/KD(IGF-I) [2] of 4.5 fold.

In the case of “G1S/A70V IGF-I (soluble, purified) (from UniProt P05019 50-117) (ligand)”, the KD(mutant)/KD(IGF-I) [1] is reported as 1.1 fold and the KD(mutant)/KD(IGF-I) [2] is reported as 1.5 fold.

Molecule “F16A IGF-I (soluble, purified) (from UniProt P05019 49-118) (ligand)” has a KD(mutant)/KD(IGF-I) [1] of 25 fold and a KD(mutant)/KD(IGF-I) [2] of 6.9 fold.

For “P39A IGF-I (soluble, purified) (from UniProt P05019 49-118) (ligand)”, the KD(mutant)/KD(IGF-I) [1] was 1 fold and the KD(mutant)/KD(IGF-I) [2] was 1.5 fold.

“F25A IGF-I (soluble, purified) (from UniProt P05019 49-118) (ligand)” gave a KD(mutant)/KD(IGF-I) [1] of 25 fold and a KD(mutant)/KD(IGF-I) [2] of 5.1 fold.

For “recombinant human IGFBP-3 (from UniProt P17936 28-291)”, the IC50 [3] was 1.12 nM, the relative IC50 (IC50mut/IC50 G1S-A70V) [3] was 1.5 fold and the IC50 [4] was 1.11 nM. For the same molecule, the relative IC50 (IC50mut/IC50 G1S-A70V) [4] was 1.5 fold, the IC50 [5] was 2.18 nM and the relative IC50 (IC50mut/IC50 G1S-A70V) [5] was 2.9 fold. For the same molecule, the IC50 [6] was 3.69 nM, the relative IC50 (IC50mut/IC50 G1S-A70V) [6] was 4.9 fold and the IC50 [7] was 0.9 nM. It also gave a relative IC50 (IC50mut/IC50 G1S-A70V) [7] of 1.2 fold, an IC50 [8] of 2.07 nM and a relative IC50 (IC50mut/IC50 G1S-A70V) [8] of 2.8 fold. It also gave an IC50 [9] of 0.53 nM, a relative IC50 (IC50mut/IC50 G1S-A70V) [9] of 0.7 fold and an IC50 [10] of 1.17 nM. The relative IC50 (IC50mut/IC50 G1S-A70V) [10] was 1.6 fold, the IC50 [11] was 0.9 nM and the relative IC50 (IC50mut/IC50 G1S-A70V) [11] was 1.2 fold. It also gave an IC50 [12] of 0.56 nM, a relative IC50 (IC50mut/IC50 G1S-A70V) [12] of 0.7 fold and an IC50 [13] of 0.58 nM. The relative IC50 (IC50mut/IC50 G1S-A70V) [13] was 0.8 fold, the IC50 [14] was 0.75 nM and the relative IC50 (IC50mut/IC50 G1S-A70V) [14] was 1 fold. It also gave an IC50 [15] of 1.65 nM, a relative IC50 (IC50mut/IC50 G1S-A70V) [15] of 2.2 fold and an IC50 [16] of 0.47 nM. The relative IC50 (IC50mut/IC50 G1S-A70V) [16] was 0.6 fold, the IC50 [17] was 0.43 nM and the relative IC50 (IC50mut/IC50 G1S-A70V) [17] was 0.6 fold. It also gave an IC50 [18] of 1.03 nM, a relative IC50 (IC50mut/IC50 G1S-A70V) [18] of 1.4 fold and an IC50 [19] of 2.53 nM. The relative IC50 (IC50mut/IC50 G1S-A70V) [19] was 3.4 fold.

Work on “T4A IGF-I (soluble, purified) (from UniProt P05019 49-118) (ligand)” yielded a KD(mutant)/KD(IGF-I) [1] of 6.9 fold and a KD(mutant)/KD(IGF-I) [2] of 2.1 fold.

B1: human IGFBP-1, P08833 26-259 (protein, UniProt P08833 26-259, looked up)
chain: T1 sequence (looked up)
B1 was tested, and the relative IC50 (IC50mut/IC50 G1S-A70V) [20] was greater than 100 fold.

— patent EP1506972A1 (Genentech Inc., dated 2005)
